# Source: patent publication US20210162067A1, “Composition and Methods of Controllable Co-Coupling Polypeptide Nanoparticle Delivery System for Nucleic Acid Therapeutics” (SIRNAOMICS, INC., priority 2018, published 2021)
# No end group written: not given here.
# Assay type: physicochemical
# Protocol: The structure of the HKC2 was characterized by HPLC and mass spectroscopy, and a major peak at retention time at 8.053 min with a purity 90.0% was observed by RPHPLC. In the ESI-MS spectrum (FIG. 2B), a molecular ion peak was observed as double charged ion [M+2H]^2+. Similarly, triple charged, 4+ and 5+ species were also observed. It provided a molecular weight of 2683 Da, which is in good agreement with the theoretical value. […] This is a plus for its formulation with the siRNA in aqueous medium.
substance,measurement,value
"K(HHHK)4CSSC (KHHHKHHHKHHHKHHHKCSSC; also: branched peptide, cross-linked through intermolecular disulfide bonds between cysteines into polymer (HKC2))",solubility in water,readily soluble in water
